B1: 506.C01 (antibody, V domains shown)
VH: QVQLQESGPGLVKPSQTLSLTCTVSGGSISSDDYYWTWIRLPPGKGLEWIGYIFYTGGTYYNPSLKSRVTISLDRSKNQFSLKLSSVTAADTAVYFCARAPETYCSTTNCYKGYFDSWGQGTLVTVSS
VL: DIQMTQSPSSVSASVGDRVTITCRASQGISSWLGWYQQKPGKAPKLLIYAASSLQSGVPSRFSGSGSGTDFTLTISSLQPEDFATYYCQQANSFPRTFGQGTKVEIK
B2: 506.A08 (antibody, V domains shown)
VH: EEQLVESGGGLVQPGGSLRLSCAASGFTFSSYSMNWVRQAPGKGLEWVSYISSSSSTIHYADSVKGRFTISRDNAKNSLYLQMNSLRAEDTAVYYCAREGNSGYEPLDYWGQGTLVTVSS
VL: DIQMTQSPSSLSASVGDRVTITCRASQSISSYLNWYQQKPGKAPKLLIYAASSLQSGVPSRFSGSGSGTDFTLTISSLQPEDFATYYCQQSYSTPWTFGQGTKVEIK
B3: 516.A10 (antibody, V domains shown)
VH: QVQMVESGGGVVQPGRSLRLSCAASGFTFSSYPIHWVRQVPGKGLEWVAVISYDGSNKYYADSVKGRFTISRDNSKNTLYLQMNSLRPEDTAVYFCARGRGDFELNSFDYWGQGTLVTVSS
VL: EIVLTQSPGTLSLSPGERATLSCRASQSVSSSYLGWYQQKLGQAPRLLIYGASSRATGIPDRFSGSGSGTDFTLTISRLEPEDFAVYYCQQYGSTPFTFGPGTKVDIK

target: CHIKV-LR 2006 (virus) (Chikungunya virus strain LR 2006); assay: cell-based or functional assay

First: B1
Second: B2
The “FRNT neutralisation, LR 2006 EC50” value of the first is 14-fold lower: 0.008 µg/mL for the first, 0.11 µg/mL for the second.

In the case of B3, the “FRNT neutralisation, LR 2006 EC50” value is reported as 0.004 µg/mL.

target: CHIKV-37997 (virus) (Chikungunya virus strain 37997, UniProt Q5XXP3 326-748; Q5XXP3 810-1248); assay: cell-based or functional assay
Sequence (Q5XXP3 326-748 limits assumed, chain 1 of 2): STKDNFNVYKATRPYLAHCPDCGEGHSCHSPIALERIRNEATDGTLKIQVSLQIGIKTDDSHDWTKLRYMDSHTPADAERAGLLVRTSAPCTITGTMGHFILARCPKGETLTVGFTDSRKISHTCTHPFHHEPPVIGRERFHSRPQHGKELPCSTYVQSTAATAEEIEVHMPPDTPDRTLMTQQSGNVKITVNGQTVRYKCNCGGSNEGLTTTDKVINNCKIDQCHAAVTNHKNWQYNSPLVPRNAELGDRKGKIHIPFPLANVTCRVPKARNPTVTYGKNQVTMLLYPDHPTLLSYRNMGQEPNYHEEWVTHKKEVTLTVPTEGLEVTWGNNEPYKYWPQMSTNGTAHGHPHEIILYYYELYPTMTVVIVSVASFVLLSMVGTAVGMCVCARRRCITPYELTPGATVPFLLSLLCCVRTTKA
Sequence (Q5XXP3 810-1248 limits assumed, chain 2 of 2): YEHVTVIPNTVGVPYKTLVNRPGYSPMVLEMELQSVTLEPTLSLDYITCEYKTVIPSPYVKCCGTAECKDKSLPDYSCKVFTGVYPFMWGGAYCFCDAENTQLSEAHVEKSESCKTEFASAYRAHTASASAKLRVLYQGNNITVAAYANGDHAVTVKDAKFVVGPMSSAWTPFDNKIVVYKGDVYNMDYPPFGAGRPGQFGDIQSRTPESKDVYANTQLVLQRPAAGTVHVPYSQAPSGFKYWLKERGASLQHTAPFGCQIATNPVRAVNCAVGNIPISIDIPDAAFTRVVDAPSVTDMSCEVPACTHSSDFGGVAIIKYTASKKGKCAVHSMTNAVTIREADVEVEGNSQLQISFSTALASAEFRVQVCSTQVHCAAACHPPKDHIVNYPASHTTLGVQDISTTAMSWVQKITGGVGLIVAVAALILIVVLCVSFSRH

Going from B1 to B2, the “FRNT neutralisation, 37997 EC50” value rises from 0.002 µg/mL to 0.072 µg/mL (36-fold).

With B3 the “FRNT neutralisation, 37997 EC50” value was 0.128 µg/mL.
